The record followed here is publication PMC11381544 (Nature Communications, 2024).

One test has as its system CRTAP and PPIB. The test is described as follows: Co-purification / SDS-PAGE of PCP complex with P3H1 mutants. The test is classed as binding, human. The note with it: co-expression with CRTAP and PPIB, Supplementary Fig. 1c.
Test [1] relates to P3H1 within the PCP complex. Nature of the test: 2-OG dependent oxygenase activity. The test is classed as biochemical, human. The following applies: Succinate-Glo assay, Fig. 1g, Fig. 3f, Supplementary Fig. 1f.

B1: PCP-P3H1D589A: PCP complex with P3H1 active-site mutation D589A (protein)
chain: EVESEAGWGMVTPDLLFAEGTAAYARGDWPGVVLSMERALRSRAALRALRLRCRTQCAADFPWELDPDWSPSPAQASGAAALRDLSFFGGLLRRAACLRRCLGPPAAHSLSEEMELEFRKRSPYNYLQVAYFKINKLEKAVAAAHTFFVGNPEHMEMQQNLDYYQTMSGVKEADFKDLETQPHMQEFRLGVRLYSEEQPQEAVPHLEAALQEYFVAYEECRALCEGPYDYDGYNYLEYNADLFQAITDHYIQVLNCKQNCVTELASHPSREKPFEDFLPSHYNYLQFAYYNIGNYTQAVECAKTYLLFFPNDEVMNQNLAYYAAMLGEEHTRSIGPRESAKEYRQRSLLEKELLFFAYDVFGIPFVDPDSWTPEEVIPKRLQEKQKSERETAVRISQEIGNLMKEIETLVEEKTKESLDVSRLTREGGPLLYEGISLTMNSKLLNGSQRVVMDGVISDHECQELQRLTNVAATSGDGYRGQTSPHTPNEKFYGVTVFKALKLGQEGKVPLQSAHLYYNVTEKVRRIMESYFRLDTPLYFSYSHLVCRTAIEEVQAERKDDSHPVHVANCILNAETLVCVKEPPAYTFRDYSAILYLNGDFDGGNFYFTELDAKTVTAEVQPQCGRAVGFSSGTENPHGVKAVTRGQRCAIALWFTLDPRHSERDRVQADDLVKMLFSPEEMDLSQEQPLDAQQGPPEPAQESLSGSESKPKDEL
With B1, the “PCP complex formation of P3H1 active mutants” value (“PCP complex formation” below) in the test on CRTAP and PPIB was “could form PCP complex with CRTAP and PPIB”. In test [1], the “2OG-Fe (II) oxygenase / P3H1 activity, in words” value is listed as “significantly decreased 2OG-dependent oxygenase activities”.

B2: PCP-P3H1H587A: PCP complex with P3H1 active-site mutation H587A (protein)
chain: EVESEAGWGMVTPDLLFAEGTAAYARGDWPGVVLSMERALRSRAALRALRLRCRTQCAADFPWELDPDWSPSPAQASGAAALRDLSFFGGLLRRAACLRRCLGPPAAHSLSEEMELEFRKRSPYNYLQVAYFKINKLEKAVAAAHTFFVGNPEHMEMQQNLDYYQTMSGVKEADFKDLETQPHMQEFRLGVRLYSEEQPQEAVPHLEAALQEYFVAYEECRALCEGPYDYDGYNYLEYNADLFQAITDHYIQVLNCKQNCVTELASHPSREKPFEDFLPSHYNYLQFAYYNIGNYTQAVECAKTYLLFFPNDEVMNQNLAYYAAMLGEEHTRSIGPRESAKEYRQRSLLEKELLFFAYDVFGIPFVDPDSWTPEEVIPKRLQEKQKSERETAVRISQEIGNLMKEIETLVEEKTKESLDVSRLTREGGPLLYEGISLTMNSKLLNGSQRVVMDGVISDHECQELQRLTNVAATSGDGYRGQTSPHTPNEKFYGVTVFKALKLGQEGKVPLQSAHLYYNVTEKVRRIMESYFRLDTPLYFSYSHLVCRTAIEEVQAERKDDSHPVAVDNCILNAETLVCVKEPPAYTFRDYSAILYLNGDFDGGNFYFTELDAKTVTAEVQPQCGRAVGFSSGTENPHGVKAVTRGQRCAIALWFTLDPRHSERDRVQADDLVKMLFSPEEMDLSQEQPLDAQQGPPEPAQESLSGSESKPKDEL
Take B2: the “PCP complex formation” value in the test with CRTAP and PPIB is “could form PCP complex with CRTAP and PPIB”. In test [1], the “2OG-Fe (II) oxygenase / P3H1 activity, in words” value is “significantly decreased 2OG-dependent oxygenase activities”.

B3: PCP-P3H1H659A: PCP complex with P3H1 active-site mutation H659A (protein)
chain: EVESEAGWGMVTPDLLFAEGTAAYARGDWPGVVLSMERALRSRAALRALRLRCRTQCAADFPWELDPDWSPSPAQASGAAALRDLSFFGGLLRRAACLRRCLGPPAAHSLSEEMELEFRKRSPYNYLQVAYFKINKLEKAVAAAHTFFVGNPEHMEMQQNLDYYQTMSGVKEADFKDLETQPHMQEFRLGVRLYSEEQPQEAVPHLEAALQEYFVAYEECRALCEGPYDYDGYNYLEYNADLFQAITDHYIQVLNCKQNCVTELASHPSREKPFEDFLPSHYNYLQFAYYNIGNYTQAVECAKTYLLFFPNDEVMNQNLAYYAAMLGEEHTRSIGPRESAKEYRQRSLLEKELLFFAYDVFGIPFVDPDSWTPEEVIPKRLQEKQKSERETAVRISQEIGNLMKEIETLVEEKTKESLDVSRLTREGGPLLYEGISLTMNSKLLNGSQRVVMDGVISDHECQELQRLTNVAATSGDGYRGQTSPHTPNEKFYGVTVFKALKLGQEGKVPLQSAHLYYNVTEKVRRIMESYFRLDTPLYFSYSHLVCRTAIEEVQAERKDDSHPVHVDNCILNAETLVCVKEPPAYTFRDYSAILYLNGDFDGGNFYFTELDAKTVTAEVQPQCGRAVGFSSGTENPAGVKAVTRGQRCAIALWFTLDPRHSERDRVQADDLVKMLFSPEEMDLSQEQPLDAQQGPPEPAQESLSGSESKPKDEL
For the molecule B3, the “PCP complex formation” value with CRTAP and PPIB was “could form PCP complex with CRTAP and PPIB”. For the same molecule, the “2OG-Fe (II) oxygenase / P3H1 activity, in words” value in test [1] is recorded as “significantly decreased 2OG-dependent oxygenase activities”.

B4: P3H1/CRTAP: purified P3H1/CRTAP binary complex obtained when PPIB was excluded from co-transfection (protein)
chain 1: EVESEAGWGMVTPDLLFAEGTAAYARGDWPGVVLSMERALRSRAALRALRLRCRTQCAADFPWELDPDWSPSPAQASGAAALRDLSFFGGLLRRAACLRRCLGPPAAHSLSEEMELEFRKRSPYNYLQVAYFKINKLEKAVAAAHTFFVGNPEHMEMQQNLDYYQTMSGVKEADFKDLETQPHMQEFRLGVRLYSEEQPQEAVPHLEAALQEYFVAYEECRALCEGPYDYDGYNYLEYNADLFQAITDHYIQVLNCKQNCVTELASHPSREKPFEDFLPSHYNYLQFAYYNIGNYTQAVECAKTYLLFFPNDEVMNQNLAYYAAMLGEEHTRSIGPRESAKEYRQRSLLEKELLFFAYDVFGIPFVDPDSWTPEEVIPKRLQEKQKSERETAVRISQEIGNLMKEIETLVEEKTKESLDVSRLTREGGPLLYEGISLTMNSKLLNGSQRVVMDGVISDHECQELQRLTNVAATSGDGYRGQTSPHTPNEKFYGVTVFKALKLGQEGKVPLQSAHLYYNVTEKVRRIMESYFRLDTPLYFSYSHLVCRTAIEEVQAERKDDSHPVHVDNCILNAETLVCVKEPPAYTFRDYSAILYLNGDFDGGNFYFTELDAKTVTAEVQPQCGRAVGFSSGTENPHGVKAVTRGQRCAIALWFTLDPRHSERDRVQADDLVKMLFSPEEMDLSQEQPLDAQQGPPEPAQESLSGSESKPKDEL
chain 2: QYERYSFRSFPRDELMPLESAYRHALDKYSGEHWAESVGYLEISLRLHRLLRDSEAFCHRNCSAAPQPEPAAGLASYPELRLFGGLLRRAHCLKRCKQGLPAFRQSQPSREVLADFQRREPYKFLQFAYFKANNLPKAIAAAHTFLLKHPDDEMMKRNMAYYKSLPGAEDYIKDLETKSYESLFIRAVRAYNGENWRTSITDMELALPDFFKAFYECLAACEGSREIKDFKDFYLSIADHYVEVLECKIQCEENLTPVIGGYPVEKFVATMYHYLQFAYYKLNDLKNAAPCAVSYLLFDQNDKVMQQNLVYYQYHRDTWGLSDEHFQPRPEAVQFFNVTTLQKELYDFAKENIMDDDEGEVVEYVDDLLELEETS
modifications: left off: twin Strep tag, C-terminal, kept
Consider B4, for which the “2OG-Fe (II) oxygenase / P3H1 activity, in words” value in test [1] is listed as “elevated P3H1 activities”.

B5: PCP-P3H1R669A: PCP complex with P3H1 active-site mutation R669A (protein)
chain: EVESEAGWGMVTPDLLFAEGTAAYARGDWPGVVLSMERALRSRAALRALRLRCRTQCAADFPWELDPDWSPSPAQASGAAALRDLSFFGGLLRRAACLRRCLGPPAAHSLSEEMELEFRKRSPYNYLQVAYFKINKLEKAVAAAHTFFVGNPEHMEMQQNLDYYQTMSGVKEADFKDLETQPHMQEFRLGVRLYSEEQPQEAVPHLEAALQEYFVAYEECRALCEGPYDYDGYNYLEYNADLFQAITDHYIQVLNCKQNCVTELASHPSREKPFEDFLPSHYNYLQFAYYNIGNYTQAVECAKTYLLFFPNDEVMNQNLAYYAAMLGEEHTRSIGPRESAKEYRQRSLLEKELLFFAYDVFGIPFVDPDSWTPEEVIPKRLQEKQKSERETAVRISQEIGNLMKEIETLVEEKTKESLDVSRLTREGGPLLYEGISLTMNSKLLNGSQRVVMDGVISDHECQELQRLTNVAATSGDGYRGQTSPHTPNEKFYGVTVFKALKLGQEGKVPLQSAHLYYNVTEKVRRIMESYFRLDTPLYFSYSHLVCRTAIEEVQAERKDDSHPVHVDNCILNAETLVCVKEPPAYTFRDYSAILYLNGDFDGGNFYFTELDAKTVTAEVQPQCGRAVGFSSGTENPHGVKAVTRGQACAIALWFTLDPRHSERDRVQADDLVKMLFSPEEMDLSQEQPLDAQQGPPEPAQESLSGSESKPKDEL
As to B5, the “PCP complex formation” value in the test on CRTAP and PPIB is “could form PCP complex with CRTAP and PPIB”. Besides, in test [1], the “2OG-Fe (II) oxygenase / P3H1 activity, in words” value is on record as “significantly decreased 2OG-dependent oxygenase activities”.

B6: PCP-P3H1W675L: PCP complex with OI-related P3H1 mutation W675L near the active site (protein)
chain: EVESEAGWGMVTPDLLFAEGTAAYARGDWPGVVLSMERALRSRAALRALRLRCRTQCAADFPWELDPDWSPSPAQASGAAALRDLSFFGGLLRRAACLRRCLGPPAAHSLSEEMELEFRKRSPYNYLQVAYFKINKLEKAVAAAHTFFVGNPEHMEMQQNLDYYQTMSGVKEADFKDLETQPHMQEFRLGVRLYSEEQPQEAVPHLEAALQEYFVAYEECRALCEGPYDYDGYNYLEYNADLFQAITDHYIQVLNCKQNCVTELASHPSREKPFEDFLPSHYNYLQFAYYNIGNYTQAVECAKTYLLFFPNDEVMNQNLAYYAAMLGEEHTRSIGPRESAKEYRQRSLLEKELLFFAYDVFGIPFVDPDSWTPEEVIPKRLQEKQKSERETAVRISQEIGNLMKEIETLVEEKTKESLDVSRLTREGGPLLYEGISLTMNSKLLNGSQRVVMDGVISDHECQELQRLTNVAATSGDGYRGQTSPHTPNEKFYGVTVFKALKLGQEGKVPLQSAHLYYNVTEKVRRIMESYFRLDTPLYFSYSHLVCRTAIEEVQAERKDDSHPVHVDNCILNAETLVCVKEPPAYTFRDYSAILYLNGDFDGGNFYFTELDAKTVTAEVQPQCGRAVGFSSGTENPHGVKAVTRGQRCAIALLFTLDPRHSERDRVQADDLVKMLFSPEEMDLSQEQPLDAQQGPPEPAQESLSGSESKPKDEL
Take B6: in test [1] (listed as W675L^P3H1), the “2OG-Fe (II) oxygenase / P3H1 activity, in words” value was “reduced enzymatic activities”.
